From article PMC3630169

Key:
[1] = target: FhbA from B. hermsii strain MAN (B. hermsii strain MAN); assay: radioligand binding; OspE, FhbA or Tuf coated on microtitre plates (5–25 µg/ml in PBS, 4°C, 12 h), blocked with 0.5% BSA/PBS; ^125I-FH19-20 (50,000 cpm/well) mixed with serial dilutions of FH19-20 mutants; 37°C, 60 min; IC50 from fitted inhibition curves, three experiments in triplicate
[2] = target: outer surface protein E (OspE) from B. burgdorferi sensu stricto strain N40 (B. burgdorferi sensu stricto strain N40); assay: as above

| Substance | IC50mut/IC50wt [1] | IC50mut/IC50wt [2] |
| --- | --- | --- |
| FH19-20 D1119G (from UniProt P08603 1107-1231) (domain or fragment) | 0.9 | 0.6 |
| FH19-20 E1198A (from UniProt P08603 1107-1231) (domain or fragment) | 25.1 | 24.7 |
| FH19-20 K1186A (from UniProt P08603 1107-1231) (domain or fragment) | 0.5 | 0.2 |
| FH19-20 K1188A (from UniProt P08603 1107-1231) (domain or fragment) | 1.6 | 0.8 |
| FH19-20 L1189R (from UniProt P08603 1107-1231) (domain or fragment) | 4.9 | 2.9 |
| FH19-20 Q1139A (from UniProt P08603 1107-1231) (domain or fragment) | 1.1 | 1.2 |
| FH19-20 R1182A (from UniProt P08603 1107-1231) (domain or fragment) | 18 | 3 |
| FH19-20 R1203A (from UniProt P08603 1107-1231) (domain or fragment) | 41.9 | 4.7 |
| FH19-20 R1206A (from UniProt P08603 1107-1231) (domain or fragment) | 3.1 | 3.4 |
| FH19-20 R1210A (from UniProt P08603 1107-1231) (domain or fragment) | 1.8 | 1.3 |
| FH19-20 R1215Q (from UniProt P08603 1107-1231) (domain or fragment) | 2 | 33.8 |
| FH19-20 T1184R (from UniProt P08603 1107-1231) (domain or fragment) | 1.7 | 1.2 |
| FH19-20 W1157L (from UniProt P08603 1107-1231) (domain or fragment) | 1.4 | 1.4 |
| FH19-20 W1183L (from UniProt P08603 1107-1231) (domain or fragment) | 66.4 | 97.1 |
